Measured values: patent publication US20090136433A1

Target: hair (human) (human)
Test: binding test on 5 mg human hair; bound His-tagged protein detected with anti-polyhistidine peroxidase conjugate and TMB; buffer control A405 nm = 0.05

A405 nm (absorption at 405 nm) (absorption at 405 nm): 0.12
Substance: Comparison protein YaaD from B. subtilis with His tag (from UniProt P37527 1-294)
